Data published in paper PMC11741300.
Where two headings read alike, the source gives them in different places.

Key:
[1] = target: T1, PARP1 (unlabeled) (Homo sapiens, UniProt P09874 1-1014); experiment: mass photometry
[2] = target: T2, Cy3-PARP1 (Homo sapiens, UniProt P09874 1-1014); experiment: smTIRFM
[3] = target: T2, Cy3-PARP1; experiment: smTIRFM; remark: listed apart in the source
[4] = target: T2, Cy3-PARP1; experiment: smTIRFM; remark: listed apart in the source
[5] = target: T1, PARP1 (unlabeled); experiment: mass photometry; remark: listed apart in the source
[6] = target: T2, Cy3-PARP1; experiment: smTIRFM; remark: listed apart in the source
[7] = target: T1, PARP1 (unlabeled); experiment: mass photometry; remark: listed apart in the source

T2 sequence (P09874 whole entry): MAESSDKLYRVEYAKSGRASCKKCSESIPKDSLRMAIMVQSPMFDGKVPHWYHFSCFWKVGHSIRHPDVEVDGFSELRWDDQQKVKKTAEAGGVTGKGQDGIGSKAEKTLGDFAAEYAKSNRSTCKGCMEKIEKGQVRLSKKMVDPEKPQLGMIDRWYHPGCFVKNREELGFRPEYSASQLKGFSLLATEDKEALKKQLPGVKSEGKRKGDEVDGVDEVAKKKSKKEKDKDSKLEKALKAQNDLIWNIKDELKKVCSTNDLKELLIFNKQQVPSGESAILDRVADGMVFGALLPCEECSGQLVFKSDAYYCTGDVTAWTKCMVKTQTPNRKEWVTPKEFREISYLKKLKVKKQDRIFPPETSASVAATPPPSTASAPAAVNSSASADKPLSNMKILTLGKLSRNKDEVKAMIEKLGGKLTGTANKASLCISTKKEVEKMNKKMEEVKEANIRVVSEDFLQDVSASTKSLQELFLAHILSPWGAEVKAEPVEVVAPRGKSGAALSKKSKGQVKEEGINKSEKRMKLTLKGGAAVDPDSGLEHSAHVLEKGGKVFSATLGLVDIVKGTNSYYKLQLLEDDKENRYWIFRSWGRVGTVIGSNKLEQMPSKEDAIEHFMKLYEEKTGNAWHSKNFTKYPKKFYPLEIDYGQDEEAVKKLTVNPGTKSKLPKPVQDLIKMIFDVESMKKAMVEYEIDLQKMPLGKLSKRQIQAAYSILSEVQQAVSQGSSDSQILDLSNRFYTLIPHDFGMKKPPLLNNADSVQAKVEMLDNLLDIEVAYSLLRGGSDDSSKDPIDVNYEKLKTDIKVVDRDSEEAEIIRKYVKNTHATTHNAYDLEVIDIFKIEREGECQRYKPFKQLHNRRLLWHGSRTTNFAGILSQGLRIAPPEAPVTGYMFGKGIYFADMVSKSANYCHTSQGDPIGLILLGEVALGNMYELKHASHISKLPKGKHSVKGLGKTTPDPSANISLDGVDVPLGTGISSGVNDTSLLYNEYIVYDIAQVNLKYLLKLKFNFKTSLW
T1 sequence (P09874 whole entry): as above

B1: cKITG4-PT (MP) (structured_DNA)
DNA: CATGTAGTCACTATGATTAGGCATAGTGACTACATGGGGCGGGCGCGAGGGAGGGGAGGATCTAATGCATTAAGTTCGCTTAATGCATTAGAT
binding result [1]: binds

B2: nicked (smTIRFM) (structured_DNA)
DNA 1: TGGCGACGGCAGCGAGGCTCTAATGCATTAAGTTCCTTAATGCATTAGA
DNA 2: GCCTCGCTGCCGTCGCCA
modifications: 3' biotin on strand 2
Kd [2]: 3.96 ± 0.2 nM
Kd [3]: 2.67 ± 0.16 nM

B3: cKITG4-PT (smTIRFM) (structured_DNA)
DNA 1: TGGCGACGGCAGCGAGGCGGGCGGGCGCGAGGGAGGGGAGGTCTAATGCATTAAGTTCCTTAATGCATTAGA
DNA 2: GCCTCGCTGCCGTCGCCA
modifications: 3' biotin on strand 2
Kd [2]: 3.24 ± 0.09 nM

B4: dsDNA (smTIRFM) (dsDNA)
DNA 1: CATGTAGTCACTATGCTACTGTG
DNA 2: CACAGTAGCATAGTGACTACATG
modifications: 3' biotin on strand 1
binding result [4]: binds

B5: ssDNA (dT)90 (MP) (ssDNA)
DNA: TTTTTTTTTTTTTTTTTTTTTTTTTTTTTTTTTTTTTTTTTTTTTTTTTTTTTTTTTTTTTTTTTTTTTTTTTTTTTTTTTTTTTTTTTT
binding result [5]: no binding

TGGGTGGGTAGGGTGGGTTT (structured_DNA, 3' biotin) [cMYCG4]
binding result [6]: binds

B6: nicked (MP) (structured_DNA)
DNA: CATGTAGTCACTATGAGGCATAGTGACTACATGATCTAATGCATTAAGTTCCTTAATGCATTAGAT
binding result [7]: binds

GGGCGGGCGCGAGGGAGGGGAGG (structured_DNA, 3' biotin) [cKITG4 (smTIRFM)]
Kd [2]: 0.04 ± 0.002 nM
